The target in one data set is Ucc1-Skp1(FL) complex (S. cerevisiae, UniProt Q05947 1-369; P52286 1-194). Description: pull-down.
The data set “crystal structure” concerns the molecule itself. The data set is described as follows: crystal structure.

Ucc1-Skp1(FL) complex, sequence (Q05947 whole entry, chain 1 of 2): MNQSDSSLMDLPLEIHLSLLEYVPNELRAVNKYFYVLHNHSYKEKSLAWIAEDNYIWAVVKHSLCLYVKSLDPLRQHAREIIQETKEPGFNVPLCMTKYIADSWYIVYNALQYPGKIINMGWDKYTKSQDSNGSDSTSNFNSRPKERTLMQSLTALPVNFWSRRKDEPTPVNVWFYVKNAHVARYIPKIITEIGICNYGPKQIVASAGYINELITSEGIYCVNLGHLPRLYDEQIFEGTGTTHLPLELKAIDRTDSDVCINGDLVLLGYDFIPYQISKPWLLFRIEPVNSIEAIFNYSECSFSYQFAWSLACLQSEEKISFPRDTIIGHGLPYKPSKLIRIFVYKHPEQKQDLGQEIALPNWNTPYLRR
Ucc1-Skp1(FL) complex, sequence (P52286 whole entry, chain 2 of 2): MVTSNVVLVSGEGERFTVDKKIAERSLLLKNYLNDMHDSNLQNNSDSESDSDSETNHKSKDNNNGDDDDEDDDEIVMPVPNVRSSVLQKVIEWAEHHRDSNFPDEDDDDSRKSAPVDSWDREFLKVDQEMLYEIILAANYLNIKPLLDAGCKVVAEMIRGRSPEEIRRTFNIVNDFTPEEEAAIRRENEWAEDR

B1: MBP-Cit1(Δ1–37) (enzyme, S. cerevisiae, UniProt P00890 38-479, looked up)
chain: SSASEQTLKERFAEIIPAKAEEIKKFKKEHGKTVIGEVLLEQAYGGMRGIKGLVWEGSVLDPEEGIRFRGRTIPEIQRELPKAEGSTEPLPEALFWLLLTGEIPTDAQVKALSADLAARSEIPEHVIQLLDSLPKDLHPMAQFSIAVTALESESKFAKAYAQGVSKKEYWSYTFEDSLDLLGKLPVIASKIYRNVFKDGKITSTDPNADYGKNLAQLLGYENKDFIDLMRLYLTIHSDHEGGNVSAHTTHLVGSALSSPYLSLAAGLNGLAGPLHGRANQEVLEWLFKLREEVKGDYSKETIEKYLWDTLNAGRVVPGYGHAVLRKTDPRYTAQREFALKHFPDYELFKLVSTIYEVAPGVLTKHGKTKNPWPNVDSHSGVLLQYYGLTEASFYTVLFGVARAIGVLPQLIIDRAVGAPIERPKSFSTEKYKELVKKIESKN
As to B1, in the data set with Ucc1-Skp1(FL) complex, the binding result is “binds”.

B2: Cit2 (full-length, HisSUMO1-tag cleaved) (enzyme, S. cerevisiae, UniProt P08679 1-460, looked up)
chain: MTVPYLNSNRNVASYLQSNSSQEKTLKERFSEIYPIHAQDVRQFVKEHGKTKISDVLLEQVYGGMRGIPGSVWEGSVLDPEDGIRFRGRTIADIQKDLPKAKGSSQPLPEALFWLLLTGEVPTQAQVENLSADLMSRSELPSHVVQLLDNLPKDLHPMAQFSIAVTALESESKFAKAYAQGISKQDYWSYTFEDSLDLLGKLPVIAAKIYRNVFKDGKMGEVDPNADYAKNLVNLIGSKDEDFVDLMRLYLTIHSDHEGGNVSAHTSHLVGSALSSPYLSLASGLNGLAGPLHGRANQEVLEWLFALKEEVNDDYSKDTIEKYLWDTLNSGRVIPGYGHAVLRKTDPRYMAQRKFAMDHFPDYELFKLVSSIYEVAPGVLTEHGKTKNPWPNVDAHSGVLLQYYGLKESSFYTVLFGVSRAFGILAQLITDRAIGASIERPKSYSTEKYKELVKNIESKL
As to B2, the “stoichiometry N” value in “crystal structure” was found to be 2.

These data come from publication PMC10104474 (Science Advances, 2023).
